Experimental data: the DeepSol protein solubility set

Assay: soluble on expression in E. coli; label from the status in PepcDB or PDB records

| Sequence | soluble on expression in E. coli |
| --- | --- |
| MWASPSPSVTVEFLEADSRLGGREVSLCKVAGQPDIRCECGWLELQPTRRSVNYEVVSSGGVTQSAALVTADFQSAEERSRLTVTVQLSSLARDMRDGYHEGFGAGLNNLASVAGRTMVLERVIKVPRNIVWKAWMNEKTLPQWWGPEGFSCRTKRIDLRTGGEWVFDMIGPDGTVFPNHHRYVEIRPEERLAYTLLWGENGPKHADAWASFEDQDGATKVVLGMVFSTDAEFQQAKGFGAVELGQQTLGKLERFAKFFLEHHHHHH | soluble |
| MGSDKIHHHHHHMAVRPYWKGYLKLSLVTCPVQMMPATSESEKVRFHTLNRETQNRVVSHYVDSVTGKEVKDEDEVKGYQRGENEYIILEDEELENVALDSTKTIDISTFTPRDSVEWIWLDTPYYLSPNDPVGQEAFSVIRDAMEAQNMVGISRLVISRRERAVMLEPRGKGIVLWTLRYGDEVRDEDTYFAGIDDEETADREMMPLVQQLIKKQTKHWDAKMVIDPVQERLLDIIAAKKKALKKSARAKPSAPAKSTPSNVINIMDALKKSVAAENRSSK | not soluble |
| MSQPCPCGSADEYSLCCGRIVSGERVAPDPSHLMRSRYCAFVMKDADYLIKSWHPTCNAAAFRDDIIAGFANTRWLGLTIFEHTWSEAENTGYVSFIARFSEQGKNGAIIERSRFIKENGQWYYIDGTRPQLGRNDPCPCGSGKKFKKCCGQ | not soluble |
| MAIDNIKAYVHLSDADIEEIGRRLDQIKAEVTQSLGARDVAYIKRLIRTQRSLEAAGRFALLFAGNKKCWWLGTGLLSTAKILENLEIGHNVLHGQWDWMNDPEIHSTTWEWDIVCPSSQWMHSHNFVHHTYTNVLGMDNDVGYGILRVTRDRKWTPLHAFQPAVNTVLAAMFQWAVGYYDVELGRYLTKRADWNDTKDKFWETTNKAGRQLARDYVFYPALARKAFPQAVKANAVANLVRSVWAYSVIFCGHFPDEAETFTKEQFKNEDHNQWYLRQMLGSANFYGGKLLTIMSGNLNYQIEHHLFPDMPSNRLAEVGEKVRALCDEYDLPYNVDSFPAQLFKVQKTLLKLTLPNKYLVASPDNAPEVRSNRAFSQNPELEHHHHHH | soluble |
| SPVSKCPKKSESLWKGWDRKAQRNGLRSQVYAVNGDYYVGEWEDNVKHGKGTQVWKKKGAIYEGDWKFGKRDGYGTLSLPDQQTGKCRRVYSGWWKGDKKSGYGIQFFGPKEYYEGDWCGSQRSGWGRMYYSNGDIYEGQWENDKPNGEGMLRLKNGNRYEGCWERGMKNGAGRFFHLDHGQLFEGFWVDNMAKCGTMIDFGRDEAPEPTQFPIPEVKILDPDGVLAEALAMFRKTEEGD | soluble |
| MLKIIQGALDTRELLKAYQEEACAKNFGAFCVFVGIVRKEDNIQGLSFDIYEALLKTWFEKWHHKAKDLGVVLKMAHSLGDVLIGQSSFLCVSMGKNRKNALELYENFIEDFKHNAPIWKYDLIHNKRIYAKERSHPLKGSGLLALEHHHHHH | soluble |
| MSNVYWPLYEVFVRGKQGLSHRHVGSLHAADERMALENARDAYTRRSEGCSIWVVKASEIVASQPEERGEFFDPAESKVYRHPTFYTIPDGIEHM | soluble |
| PEMQSMIVAEINPAYRSLIADEPQIAPLLQDKRVEIVLDDGRKWLRRHPDEKFDLILMNTTWYWRAYSTNLLSAEFLKQVQSHLTPDGIVMFNTTHSPHAFATAVHSIPYAYRYGHMVVGSATPVVFPNKELLKQRLSRLIWPESGRHVFDSSTVDAAAQKVVSRMLIQMTEPSAGAEVITDDNMIVEYKYGRGI | not soluble |
| KIPEFRDVLISTIGGPHAKLGYEIARALVEDKSGRIKLLYVGSSEKEREKAEKVFEEAMEILNGLNVEREFAISSSPSDVVAREAESFDLVIVGASERTFLKNFLTGLFPEKVVMKTSKTVAMTRKWVGLLNR | not soluble |
| MGSDKIHHHHHHKDYKTFPDKYTLSSVDVGGMTAKEAKKAIKKAIDKYQIKVKLDDAEFEMNAEDLGLEYNEKADMQTLINAANRNKVPDKQVKLFNMKKGDEMQNALVDSYITAMTEAQTDSTSNTDNDTDDTKQADKSDAEIFDIKTVVPYRATITYNADAGQFEGVDGVSGDAPIYDKAATKLSSAVKEMKKKAELESSTGYVEGEKAADSDAVKKALKEADAYLDVTVQRHL | not soluble |
